From patent publication US10421817 (BEIJING MABWORKS BIOTECH, dated 2019) come the findings set out here.

The target in test [1] is T1, human Claudin 18.1 Mutant 16 (Claudin 18.1/S42A/Q45N/E47Q/Q56E) (human, UniProt P56856 1-261).
T1 chain: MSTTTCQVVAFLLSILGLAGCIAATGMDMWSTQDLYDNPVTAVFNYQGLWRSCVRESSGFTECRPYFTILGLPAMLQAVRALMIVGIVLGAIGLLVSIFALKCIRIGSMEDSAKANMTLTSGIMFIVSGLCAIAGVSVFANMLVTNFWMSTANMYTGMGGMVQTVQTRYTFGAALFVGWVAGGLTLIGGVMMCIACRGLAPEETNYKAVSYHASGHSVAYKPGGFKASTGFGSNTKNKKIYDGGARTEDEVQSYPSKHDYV
Briefly: FACS on HEK293A cells expressing mutant 16.

Test [2] addresses human Claudin 18.1 Mutant 14 (Q56E) (human, UniProt P56856 1-261). Briefly: FACS on HEK293A cells expressing mutant 14.
The target in test [3] is T2, human Claudin 18.1 (human, UniProt P56856 1-261).
T2 construct: Overexpressed on HEK293A cells by lentivirus
The test is described as follows: FACS on HEK293A cells expressing human Claudin 18.1 WT.

The target of test [4] is T3, human Claudin 18.1 Mutant 15 (Claudin 18.1/S42A/Q45N/Q56E) (human, UniProt P56856 1-261).
T3 chain: T1 chain with Q47E
The test is described as follows: FACS on HEK293A cells expressing mutant 15.

Changes are numbered by the printed parent chain.

B1: 18F2-30VH7VL3 (antibody, human IgG1, kappa, V domains shown)
VH: QVQLVQSGAEVKKPGASVKVSCKASGYTFTSFWLNWVKQRPGQGLEWIGNIYPSTSYTVYNQKFKDKVTLTVDKSTSTAYMELSSLRSEDTAVYYCTRTWRGNSFDYWGQGTTVTVSS
VL: DIVMTQSPSSLTVSLGEKATISCKSSQSLLNSGNQKNYVTWYQQKPGQPPKLLIYWGSTRSTGVPDRFSGSGSGTDFTLTISSLQAEDLAVYYCQNDYTYPFTFGSGTKLEIKR
notes: Humanized, human IgG1/kappa constant regions
For B1, the binding result in test [1] is listed as “binds”; in test [2] it was “binds”; in test [3], “no binding”; in test [4], “binds”.
